For experiment [1], the target named is human GLP-1 receptor (human) (UniProt P43220). In words: cell-based or functional assay.
For experiment [2], the target named is FcRn. Briefly: FcRn binding assay (method not described); Aggregation Study, albiglutide in NaCl + cysteine formulation, stored at 30°C for 2 months.
Experiment [3] deals with FcRn. Briefly: FcRn binding assay (method not described); Aggregation Study, albiglutide in NaCl + cysteine formulation, stored at 2-8°C for 2 months.
Experiment [4] addresses FcRn. Briefly: FcRn binding assay (method not described); Aggregation Study, albiglutide in NaCl, octanoate and cysteine formulation, stored at 30°C for 2 months.
In experiment [5] the target is FcRn. Briefly: FcRn binding assay (method not described); Aggregation Study, albiglutide in NaCl, octanoate and cysteine formulation, stored at 2-8°C for 2 months.

Chain of UniProt P43220 (P43220 24-463): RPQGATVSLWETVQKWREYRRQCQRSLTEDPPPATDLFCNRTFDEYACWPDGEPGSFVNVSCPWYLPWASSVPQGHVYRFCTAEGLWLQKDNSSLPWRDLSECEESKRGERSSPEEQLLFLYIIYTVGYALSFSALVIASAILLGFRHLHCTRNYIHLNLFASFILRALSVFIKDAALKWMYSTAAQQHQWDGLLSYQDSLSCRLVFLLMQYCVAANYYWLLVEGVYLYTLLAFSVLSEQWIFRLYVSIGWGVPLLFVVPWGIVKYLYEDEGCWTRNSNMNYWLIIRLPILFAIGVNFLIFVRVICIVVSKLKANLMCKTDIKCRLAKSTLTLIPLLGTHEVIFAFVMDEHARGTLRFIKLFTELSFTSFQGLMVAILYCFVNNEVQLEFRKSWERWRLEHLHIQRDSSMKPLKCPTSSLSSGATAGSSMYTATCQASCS

“albiglutide (from UniProt P02768 25-609) (ligand)”: the Bioassay potency; Aggregation Study, all formulations, 2 months 30°C (lower end) in experiment [1] was found to be 130%. The Bioassay potency; Aggregation Study, all formulations, 2 months 30°C (upper end) in experiment [1] was found to be 160%. Moreover, in experiment [1], the Bioassay potency; PFS Study, Variations A and B, 1 month 40°C was determined as 180%. The substance further gave a Bioassay potency; PFS Study, all variations, 3 months 30°C in experiment [1] of 130%. For the same substance, the decrease in FcRn binding was found to be 23% in the experiment with FcRn [2], 6% with FcRn [3], 23% in the experiment with FcRn [4] and 16% with FcRn [5].

These data come from patent publication US20180369341A1.
